B1: NIgG4B2A1(RS) (Fc fusion)
chain 1: QVQLVESGGGLVQAGGSLRLSCAVFGSTFSNNVADWYRQAPGKQRELVARISASGATREYGDSVKGRFTISRDDAKNTMYLQMNNLKPEDTAVYRCHKIEWEDLSRKDYWGQGTQVTVSRSGPPCPPCPAPEFLGGPSVFLFPPKPKDTLMISRTPEVTCVVVDVSQEDPEVQFNWYVDGVEVHNAKTKPREEQFNSTYRVVSVLTVLHQDWLNGKEYKCKVSNKGLPSSIEKTISKAKGQPREPQVYTLPPCQEEMTKNQVSLWCLVKGFYPSDIAVEWESNGQPENNYKTTPPVLDSDGSFFLYSRLTVDKSRWQEGNVFSCSVMHEALHNHYTQKSLSLSLGK
chain 2: EVQLLESGGGLVQPGGSLRLSCAASGFTFGNYDMAWVRQAPGKRPEWVSSIDTGGDITHYADSVKGRFTISRDNAKNTLYLQMNSLRPEDTAVYWCATDEEYALGPNEFDYYGQGTLVTVSSRSGPPCPPCPAPEFLGGPSVFLFPPKPKDTLMISRTPEVTCVVVDVSQEDPEVQFNWYVDGVEVHNAKTKPREEQFNSTYRVVSVLTVLHQDWLNGKEYKCKVSNKGLPSSIEKTISKAKGQPREPQVCTLPPSQEEMTKNQVSLSCAVKGFYPSDIAVEWESNGQPENNYKTTPPVLDSDGSFFLVSRLTVDKSRWQEGNVFSCSVMHEALHNHYTQKSLSLSLGK
B2: NIgG4B2A1(G4S)1 (Fc fusion)
chain 1: QVQLVESGGGLVQAGGSLRLSCAVFGSTFSNNVADWYRQAPGKQRELVARISASGATREYGDSVKGRFTISRDDAKNTMYLQMNNLKPEDTAVYRCHKIEWEDLSRKDYWGQGTQVTVSGGGGSGPPCPPCPAPEFLGGPSVFLFPPKPKDTLMISRTPEVTCVVVDVSQEDPEVQFNWYVDGVEVHNAKTKPREEQFNSTYRVVSVLTVLHQDWLNGKEYKCKVSNKGLPSSIEKTISKAKGQPREPQVYTLPPCQEEMTKNQVSLWCLVKGFYPSDIAVEWESNGQPENNYKTTPPVLDSDGSFFLYSRLTVDKSRWQEGNVFSCSVMHEALHNHYTQKSLSLSLGK
chain 2: EVQLLESGGGLVQPGGSLRLSCAASGFTFGNYDMAWVRQAPGKRPEWVSSIDTGGDITHYADSVKGRFTISRDNAKNTLYLQMNSLRPEDTAVYWCATDEEYALGPNEFDYYGQGTLVTVSSGGGGSGPPCPPCPAPEFLGGPSVFLFPPKPKDTLMISRTPEVTCVVVDVSQEDPEVQFNWYVDGVEVHNAKTKPREEQFNSTYRVVSVLTVLHQDWLNGKEYKCKVSNKGLPSSIEKTISKAKGQPREPQVCTLPPSQEEMTKNQVSLSCAVKGFYPSDIAVEWESNGQPENNYKTTPPVLDSDGSFFLVSRLTVDKSRWQEGNVFSCSVMHEALHNHYTQKSLSLSLGK
B3: CIgG4B1A2(G4S)2 (Fc fusion)
chain 1: GPPCPPCPAPEFLGGPSVFLFPPKPKDTLMISRTPEVTCVVVDVSQEDPEVQFNWYVDGVEVHNAKTKPREEQFNSTYRVVSVLTVLHQDWLNGKEYKCKVSNKGLPSSIEKTISKAKGQPREPQVYTLPPCQEEMTKNQVSLWCLVKGFYPSDIAVEWESNGQPENNYKTTPPVLDSDGSFFLYSRLTVDKSRWQEGNVFSCSVMHEALHNHYTQKSLSLSLGKGGGGSGGGGSQVQLQESGGGLVQTGGSLRLSCAVHGRTFSNTGMGWFRQAPGNERQFVAIISPSGTSTYYADSVKGRFTISRDPAKNTVYLQMNSLKMDDTAVYYCAASYGSNWSTLRHQRRNEYDAWGQGTQVAVS
chain 2: GPPCPPCPAPEFLGGPSVFLFPPKPKDTLMISRTPEVTCVVVDVSQEDPEVQFNWYVDGVEVHNAKTKPREEQFNSTYRVVSVLTVLHQDWLNGKEYKCKVSNKGLPSSIEKTISKAKGQPREPQVCTLPPSQEEMTKNQVSLSCAVKGFYPSDIAVEWESNGQPENNYKTTPPVLDSDGSFFLVSRLTVDKSRWQEGNVFSCSVMHEALHNHYTQKSLSLSLGKGGGGSGGGGSEVQLLESGGGLVQPGGSLRLSCAASGFRFGNYDMAWVRQAPGKRYEWVSSIDTGGDITHYADSVKGRFTISRDNAKNTLYLQMNSLRPEDTAEYWCATDEEYALGPNEFDYYGQGTLVTVS
B4: CIgG4B1A2(RS) (Fc fusion)
chain 1: GPPCPPCPAPEFLGGPSVFLFPPKPKDTLMISRTPEVTCVVVDVSQEDPEVQFNWYVDGVEVHNAKTKPREEQFNSTYRVVSVLTVLHQDWLNGKEYKCKVSNKGLPSSIEKTISKAKGQPREPQVYTLPPCQEEMTKNQVSLWCLVKGFYPSDIAVEWESNGQPENNYKTTPPVLDSDGSFFLYSRLTVDKSRWQEGNVFSCSVMHEALHNHYTQKSLSLSLGKRSQVQLQESGGGLVQTGGSLRLSCAVHGRTFSNTGMGWFRQAPGNERQFVAIISPSGTSTYYADSVKGRFTISRDPAKNTVYLQMNSLKMDDTAVYYCAASYGSNWSTLRHQRRNEYDAWGQGTQVAVS
chain 2: GPPCPPCPAPEFLGGPSVFLFPPKPKDTLMISRTPEVTCVVVDVSQEDPEVQFNWYVDGVEVHNAKTKPREEQFNSTYRVVSVLTVLHQDWLNGKEYKCKVSNKGLPSSIEKTISKAKGQPREPQVCTLPPSQEEMTKNQVSLSCAVKGFYPSDIAVEWESNGQPENNYKTTPPVLDSDGSFFLVSRLTVDKSRWQEGNVFSCSVMHEALHNHYTQKSLSLSLGKRSEVQLLESGGGLVQPGGSLRLSCAASGFRFGNYDMAWVRQAPGKRYEWVSSIDTGGDITHYADSVKGRFTISRDNAKNTLYLQMNSLRPEDTAEYWCATDEEYALGPNEFDYYGQGTLVTVS
B5: CIgG4B1A2(G4S)1 (Fc fusion)
chain 1: GPPCPPCPAPEFLGGPSVFLFPPKPKDTLMISRTPEVTCVVVDVSQEDPEVQFNWYVDGVEVHNAKTKPREEQFNSTYRVVSVLTVLHQDWLNGKEYKCKVSNKGLPSSIEKTISKAKGQPREPQVYTLPPCQEEMTKNQVSLWCLVKGFYPSDIAVEWESNGQPENNYKTTPPVLDSDGSFFLYSRLTVDKSRWQEGNVFSCSVMHEALHNHYTQKSLSLSLGKGGGGSQVQLQESGGGLVQTGGSLRLSCAVHGRTFSNTGMGWFRQAPGNERQFVAIISPSGTSTYYADSVKGRFTISRDPAKNTVYLQMNSLKMDDTAVYYCAASYGSNWSTLRHQRRNEYDAWGQGTQVAVS
chain 2: GPPCPPCPAPEFLGGPSVFLFPPKPKDTLMISRTPEVTCVVVDVSQEDPEVQFNWYVDGVEVHNAKTKPREEQFNSTYRVVSVLTVLHQDWLNGKEYKCKVSNKGLPSSIEKTISKAKGQPREPQVCTLPPSQEEMTKNQVSLSCAVKGFYPSDIAVEWESNGQPENNYKTTPPVLDSDGSFFLVSRLTVDKSRWQEGNVFSCSVMHEALHNHYTQKSLSLSLGKGGGGSEVQLLESGGGLVQPGGSLRLSCAASGFRFGNYDMAWVRQAPGKRYEWVSSIDTGGDITHYADSVKGRFTISRDNAKNTLYLQMNSLRPEDTAEYWCATDEEYALGPNEFDYYGQGTLVTVS
B6: CIgG4B1A2(G4S)3 (Fc fusion)
chain 1: GPPCPPCPAPEFLGGPSVFLFPPKPKDTLMISRTPEVTCVVVDVSQEDPEVQFNWYVDGVEVHNAKTKPREEQFNSTYRVVSVLTVLHQDWLNGKEYKCKVSNKGLPSSIEKTISKAKGQPREPQVYTLPPCQEEMTKNQVSLWCLVKGFYPSDIAVEWESNGQPENNYKTTPPVLDSDGSFFLYSRLTVDKSRWQEGNVFSCSVMHEALHNHYTQKSLSLSLGKGGGGSGGGGSGGGGSQVQLQESGGGLVQTGGSLRLSCAVHGRTFSNTGMGWFRQAPGNERQFVAIISPSGTSTYYADSVKGRFTISRDPAKNTVYLQMNSLKMDDTAVYYCAASYGSNWSTLRHQRRNEYDAWGQGTQVAVS
chain 2: GPPCPPCPAPEFLGGPSVFLFPPKPKDTLMISRTPEVTCVVVDVSQEDPEVQFNWYVDGVEVHNAKTKPREEQFNSTYRVVSVLTVLHQDWLNGKEYKCKVSNKGLPSSIEKTISKAKGQPREPQVCTLPPSQEEMTKNQVSLSCAVKGFYPSDIAVEWESNGQPENNYKTTPPVLDSDGSFFLVSRLTVDKSRWQEGNVFSCSVMHEALHNHYTQKSLSLSLGKGGGGSGGGGSGGGGSEVQLLESGGGLVQPGGSLRLSCAASGFRFGNYDMAWVRQAPGKRYEWVSSIDTGGDITHYADSVKGRFTISRDNAKNTLYLQMNSLRPEDTAEYWCATDEEYALGPNEFDYYGQGTLVTVS
B7: NIgG4B2A1(G4S)3 (Fc fusion)
chain 1: QVQLVESGGGLVQAGGSLRLSCAVFGSTFSNNVADWYRQAPGKQRELVARISASGATREYGDSVKGRFTISRDDAKNTMYLQMNNLKPEDTAVYRCHKIEWEDLSRKDYWGQGTQVTVSGGGGSGGGGSGGGGSGPPCPPCPAPEFLGGPSVFLFPPKPKDTLMISRTPEVTCVVVDVSQEDPEVQFNWYVDGVEVHNAKTKPREEQFNSTYRVVSVLTVLHQDWLNGKEYKCKVSNKGLPSSIEKTISKAKGQPREPQVYTLPPCQEEMTKNQVSLWCLVKGFYPSDIAVEWESNGQPENNYKTTPPVLDSDGSFFLYSRLTVDKSRWQEGNVFSCSVMHEALHNHYTQKSLSLSLGK
chain 2: EVQLLESGGGLVQPGGSLRLSCAASGFTFGNYDMAWVRQAPGKRPEWVSSIDTGGDITHYADSVKGRFTISRDNAKNTLYLQMNSLRPEDTAVYWCATDEEYALGPNEFDYYGQGTLVTVSSGGGGSGGGGSGGGGSGPPCPPCPAPEFLGGPSVFLFPPKPKDTLMISRTPEVTCVVVDVSQEDPEVQFNWYVDGVEVHNAKTKPREEQFNSTYRVVSVLTVLHQDWLNGKEYKCKVSNKGLPSSIEKTISKAKGQPREPQVCTLPPSQEEMTKNQVSLSCAVKGFYPSDIAVEWESNGQPENNYKTTPPVLDSDGSFFLVSRLTVDKSRWQEGNVFSCSVMHEALHNHYTQKSLSLSLGK
B8: NIgG4B2A1(G4S)2 (Fc fusion)
chain 1: QVQLVESGGGLVQAGGSLRLSCAVFGSTFSNNVADWYRQAPGKQRELVARISASGATREYGDSVKGRFTISRDDAKNTMYLQMNNLKPEDTAVYRCHKIEWEDLSRKDYWGQGTQVTVSGGGGSGGGGSGPPCPPCPAPEFLGGPSVFLFPPKPKDTLMISRTPEVTCVVVDVSQEDPEVQFNWYVDGVEVHNAKTKPREEQFNSTYRVVSVLTVLHQDWLNGKEYKCKVSNKGLPSSIEKTISKAKGQPREPQVYTLPPCQEEMTKNQVSLWCLVKGFYPSDIAVEWESNGQPENNYKTTPPVLDSDGSFFLYSRLTVDKSRWQEGNVFSCSVMHEALHNHYTQKSLSLSLGK
chain 2: EVQLLESGGGLVQPGGSLRLSCAASGFTFGNYDMAWVRQAPGKRPEWVSSIDTGGDITHYADSVKGRFTISRDNAKNTLYLQMNSLRPEDTAVYWCATDEEYALGPNEFDYYGQGTLVTVSSGGGGSGGGGSGPPCPPCPAPEFLGGPSVFLFPPKPKDTLMISRTPEVTCVVVDVSQEDPEVQFNWYVDGVEVHNAKTKPREEQFNSTYRVVSVLTVLHQDWLNGKEYKCKVSNKGLPSSIEKTISKAKGQPREPQVCTLPPSQEEMTKNQVSLSCAVKGFYPSDIAVEWESNGQPENNYKTTPPVLDSDGSFFLVSRLTVDKSRWQEGNVFSCSVMHEALHNHYTQKSLSLSLGK

This experiment deals with mixture of three Der p 2 specific recombinant human IgE clones H10, H12, P4E (human) (UniProt P01854). Description: RBL-SX38 IgE displacement, FACS.
Chain of mixture of three Der p 2 specific recombinant human IgE clones H10, H12, P4E (human) (P01854 other isoform, or with tags, fused parts or gaps): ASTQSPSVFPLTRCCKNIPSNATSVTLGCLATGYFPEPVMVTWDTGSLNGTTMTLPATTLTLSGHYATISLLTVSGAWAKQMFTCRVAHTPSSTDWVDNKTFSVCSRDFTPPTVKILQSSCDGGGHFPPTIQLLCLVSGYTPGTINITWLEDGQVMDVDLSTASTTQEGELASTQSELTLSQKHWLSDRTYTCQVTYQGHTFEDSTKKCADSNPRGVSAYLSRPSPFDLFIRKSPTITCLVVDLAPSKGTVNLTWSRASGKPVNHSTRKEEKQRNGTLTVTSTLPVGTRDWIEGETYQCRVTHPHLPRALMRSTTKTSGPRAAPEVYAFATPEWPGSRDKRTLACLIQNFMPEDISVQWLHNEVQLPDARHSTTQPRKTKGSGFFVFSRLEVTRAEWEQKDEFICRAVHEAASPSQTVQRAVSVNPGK
As a reminder, the EC50 is the midpoint of the concentration-response curve. Regarding B1, the EC50 is 0.4 nM and the Max effect/effect 1 µM is 99%.
On the same counts, the results for B2 are 0.3 nM and 97%.
On the same counts, the results for B3 are 6.1 nM and 100%.
In the case of B4, the EC50 came to 11.9 nM and the Max effect/effect 1 µM was 99%.
On the same counts, the results for B5 are 8.1 nM and 100%.
Take B6: the EC50 came out at 5.3 nM and the Max effect/effect 1 µM came out at 100%.
As to B7, the EC50 worked out at 0.5 nM and the Max effect/effect 1 µM worked out at 98%.
As to B8, the EC50 was determined as 0.3 nM and the Max effect/effect 1 µM was determined as 98%.
